Source: ChEMBL document CHEMBL1145329, “Novel methylenephosphophosphonate analogues of mycophenolic adenine dinucleotide. Inhibition of inosine monophosphate dehydrogenase” (J Med Chem, 2006)

System: NC(=O)c1ccc[n+]([C@@H]2O[C@H](COP(=O)([O-])OP(=O)(O)OC[C@H]3O[C@@H](n4cnc5c(N)ncnc54)[C@H](O)[C@@H]3O)[C@@H](O)[C@H]2O)c1
Assay: Inhibition of human IMPDH
Format: protein assay

Substance “Inosine-5'-monophosphate dehydrogenase (IMPDH) (Homo sapiens) (from UniProt P20839+P12268)” has a Km of 100 µM.
